What is called koff is a measure of how fast the partners let go of each other.

The target of assay [1] is T1, human PD-L1/His fusion protein (human, UniProt Q9NZQ7 19-239). In words: BLI Octet RED96, antibody on AHC sensor, single conc. PD-L1/His; test group 1. The procedure:
(§1) Briefly, antibodies were characterized for affinities and binding kinetics by Octet®RED96 biolayer interferometry (Pall ForteBio LLC). Antibodies were captured by Anti-hIgG Fc Capture (AHC) Biosensors (Pall) at a concentration of 100 nM for 30 seconds. Sensors were then dipped into running buffer (1×pH 7.2 PBS, 0.05% Tween 20, 0.1% BSA) for 60 seconds to check baseline. Binding was measured by dipping sensors into a single concentration of recombinant human PD-L1/His fusion protein (Novoprotein). Dissociation was followed by dipping sensors into running buffer for 1200 seconds. The association and dissociation curves were fitted to a 1:1 Langmuir binding model using ForteBio Data Analysis software (Pall). […] The off-rate ratio serves as a data normalization. Accordingly, in each test group, the off-rate ratios of the humanized antibodies can be compared with that of the chimeric antibody, and the off-rate ratios of each of the humanized antibodies can be compared to one another within all test groups.

Assay [2] concerns the target T1, human PD-L1/His fusion protein. In words: BLI off-rate; test group 1. On the procedure: as §1
Assay [3] has the same target. The experiment in a line: BLI off-rate; test group 2. The procedure: as §1
For assay [4] the target is unchanged. The experiment in a line: BLI Octet RED96, antibody on AHC sensor, single conc. PD-L1/His; test group 2. On the procedure: as §1

T1 sequence (Q9NZQ7 19-239 limits assumed): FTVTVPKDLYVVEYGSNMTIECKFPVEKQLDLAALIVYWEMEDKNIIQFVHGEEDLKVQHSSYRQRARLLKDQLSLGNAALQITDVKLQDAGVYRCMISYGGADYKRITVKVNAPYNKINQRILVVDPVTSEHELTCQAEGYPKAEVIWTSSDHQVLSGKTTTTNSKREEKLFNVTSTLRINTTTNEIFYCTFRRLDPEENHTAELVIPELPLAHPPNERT

B1: HuEM0005-87-1 (antibody, human IgG1, V domains shown)
VH: EVQLVQSGAEVKKPGASVKVSCKASGYTFTDYYINWVRQAPGQGLEWMGETIPNTGGTTYNQKFKARVTMTVDTSTSTVYMELSSLRSEDTAVYYCARYQSGSPFAYWGQGTTVTVSS
VL: DIVMTQSPDSLAVSLGERATINCKASQNVGTAVAWYQQKPGQPPKLLIYSASNRYTGVPDRFTGSGSGTDFTLTISSLQAEDVAVYYCQQHYSTPYTFGGGTKLEIK
notes: also called HuEM0005-87-l
Consider B1, for which, in assay [1], the koff was 0.000937 s⁻¹. Moreover, the “Off-Rate Ratio to that of EM0005-87c” value in assay [2] amounted to 64%.

B2: HuEM0005-87-2 (antibody, human IgG1, V domains shown)
VH: EVQLVQSGAEVKKPGASVKVSCKASGYTFTDYYINWVRQAPGQGLEWMGETIPNTGGTTYNQKFKARVTLTVDTSTSTVYMELSSLRSEDTAVYYCARYQSGSPFAYWGQGTTVTVSS
VL: DIVMTQSPDSLAVSLGERATINCKASQNVGTAVAWYQQKPGQPPKLLIYSASNRYTGVPDRFTGSGSGTDFTLTISSLQAEDVAVYYCQQHYSTPYTFGGGTKLEIK
As to B2, in assay [1], the koff is 0.000797 s⁻¹. The “Off-Rate Ratio to that of EM0005-87c” value in assay [2] is 54%.

B3: HuEM0005-87-4 (antibody, human IgG1, V domains shown)
VH: EVQLVQSGAEVKKPGASVKVSCKASGYSFTDYYINWVRQAPGQGLEWIGETIPNTGGTTYNQKFKAKATLTVDKSTSTAYMELSSLRSEDTAVYYCARYQSGSPFAYWGQGTTVTVSS
VL: DIVMTQSPDSLAVSLGERATINCKASQNVGTAVAWYQQKPGQPPKLLIYSASNRYTGVPDRFTGSGSGTDFTLTISSLQAEDVAVYYCQQHYSTPYTFGGGTKLEIK
Regarding B3, the koff in assay [1] was 0.000768 s⁻¹. In addition, the “Off-Rate Ratio to that of EM0005-87c” value in assay [2] is 52%.

B4: HuEM0005-87-5 (antibody, human IgG1, V domains shown)
VH: EVQLVQSGAEVKKPGASVKVSCKASGYSFTDYYINWVKQAPGQGLEWIGETIPNTGGTTYNQKFKAKATLTRDKSTSTAYMELKSLRSEDTAVYYCARYQSGSPFAYWGQGTTVTVSS
VL: DIVMTQSPDSLAVSLGERATINCKASQNVGTAVAWYQQKPGQPPKLLIYSASNRYTGVPDRFTGSGSGTDFTLTISSLQAEDVAVYYCQQHYSTPYTFGGGTKLEIK
The molecule B4 yielded a dissociation rate constant (koff) in assay [1] of 0.000947 s⁻¹. Also, the “Off-Rate Ratio to that of EM0005-87c” value in assay [2] came out at 64%.

B5: HuEM0005-87-8 (antibody, human IgG1, V domains shown)
VH: EVQLVQSGAEVKKPGASVKVSCKASGYTFTDYYINWVRQAPGQGLEWIGETIPNTGGTTYNQKFKARVTLTVDKSTSTVYMELSSLRSEDTAVYYCARYQSGSPFAYWGQGTTVTVSS
VL: EIVMTQSPATLSVSPGERATLSCKASQNVGTAVAWYQQKPGQAPRLLIYSASNRYTGIPARFSGSGSGTEFTLTISSLQSEDFAVYYCQQHYSTPYTFGGGTKLEIK
Consider B5, for which the “Off-Rate Ratio to that of EM0005-87c” value in assay [3] turned out to be 81%. In assay [4], the koff came to 0.000844 s⁻¹.

B6: HuEM0005-87-7 (antibody, human IgG1, V domains shown)
VH: EVQLVQSGAEVKKPGASVKVSCKASGYTFTDYYINWVRQAPGQGLEWMGETIPNTGGTTYNQKFKARVTLTVDTSTSTVYMELSSLRSEDTAVYYCARYQSGSPFAYWGQGTTVTVSS
VL: EIVMTQSPATLSVSPGERATLSCKASQNVGTAVAWYQQKPGQAPRLLIYSASNRYTGIPARFSGSGSGTEFTLTISSLQSEDFAVYYCQQHYSTPYTFGGGTKLEIK
Take B6: the “Off-Rate Ratio to that of EM0005-87c” value in assay [3] was 68%. Also, the koff in assay [4] turned out to be 0.000709 s⁻¹.

B7: HuEM0005-87-6 (antibody, human IgG1, V domains shown)
VH: EVQLVQSGAEVKKPGASVKVSCKASGYTFTDYYINWVRQAPGQGLEWMGETIPNTGGTTYNQKFKARVTMTVDTSTSTVYMELSSLRSEDTAVYYCARYQSGSPFAYWGQGTTVTVSS
VL: EIVMTQSPATLSVSPGERATLSCKASQNVGTAVAWYQQKPGQAPRLLIYSASNRYTGIPARFSGSGSGTEFTLTISSLQSEDFAVYYCQQHYSTPYTFGGGTKLEIK
In turn, B7 yielded a koff in assay [1] of 0.000998 s⁻¹. The “Off-Rate Ratio to that of EM0005-87c” value in assay [2] amounted to 68%.

B8: HuEM0005-87-3 (antibody, human IgG1, V domains shown)
VH: EVQLVQSGAEVKKPGASVKVSCKASGYTFTDYYINWVRQAPGQGLEWIGETIPNTGGTTYNQKFKARVTLTVDKSTSTVYMELSSLRSEDTAVYYCARYQSGSPFAYWGQGTTVTVSS
VL: DIVMTQSPDSLAVSLGERATINCKASQNVGTAVAWYQQKPGQPPKLLIYSASNRYTGVPDRFTGSGSGTDFTLTISSLQAEDVAVYYCQQHYSTPYTFGGGTKLEIK
In assay [1], B8 yielded a koff of 0.000926 s⁻¹. The “Off-Rate Ratio to that of EM0005-87c” value in assay [2] amounted to 63%.

B9: HuEM0005-90-5 (antibody, human IgG1, V domains shown)
VH: EVQLVQSGAEVKKPGASVKVSCKASGYTFTSHSINWVRQATGQGLEWMGYMYIGNGYTEYNEKFKGRVTLTSNTSISTAYMELSSLRSEDTAVYYCAKITPVVAPYVMDYWGQGTSVTVSS
VL: DIQMTQSPSFLSASVGDRVTITCKASQDVGTAVAWYQQKPGKAPKLLIYWASTRHTGVPSRFSGSGSGTEFTLTISSLQPEDFATYYCQQYSSYPYTFGQGTKLEIK
In turn, B9 displayed a dissociation rate constant (koff) in assay [1] of 0.00027 s⁻¹. The “Off-Rate Ratio to that of EM0005-90c” value in assay [2] is 107%.

B10: HuEM0005-90-2 (antibody, human IgG1, V domains shown)
VH: EVQLVQSGAEVKKPGASVKVSCKASGYTFTSHSINWVRQATGQGLEWIGYMYIGNGYTEYNEKFKGRATLTSNTSISTAYMELSSLRSEDTAVYYCAKITPVVAPYVMDYWGQGTSVTVSS
VL: DIQLTQSPSFLSASVGDRVTITCKASQDVGTAVAWYQQKPGKAPKLLIYWASTRHTGVPSRFSGSGSGTEFTLTISSLQPEDFATYYCQQYSSYPYTFGQGTKLEIK
In assay [1], B10 had a koff of 0.000227 s⁻¹. Besides, the “Off-Rate Ratio to that of EM0005-90c” value in assay [2] is 90%.

B11: HuEM0005-90-4 (antibody, human IgG1, V domains shown)
VH: EVQLVQSGAEVKKPGASVKVSCKTSGYTFTSHSINWVRQATGQGLEWIGYMYIGNGYTEYNEKFKGRATLTSNTSISTAYMELSSLRSEDTAVYYCAKITPVVAPYVMDYWGQGTSVTVSS
VL: DIQLTQSPSFLSASVGDRVTITCKASQDVGTAVAWYQQKPGKAPKLLIYWASTRHTGVPSRFSGSGSGTEFTLTISSLQPEDFATYYCQQYSSYPYTFGQGTKLEIK
In the case of B11, in assay [1], the koff was 0.000246 s⁻¹. Further, the “Off-Rate Ratio to that of EM0005-90c” value in assay [2] is 97%.

B12: HuEM0005-90-3 (antibody, human IgG1, V domains shown)
VH: EVQLVQSGAEVKKPGASVKVSCKTSGYTFTSHSINWVRQATGQGLEWMGYMYIGNGYTEYNEKFKGRVTMTSNTSISTAYMELSSLRSEDTAVYYCAKITPVVAPYVMDYWGQGTSVTVSS
VL: DIQLTQSPSFLSASVGDRVTITCKASQDVGTAVAWYQQKPGKAPKLLIYWASTRHTGVPSRFSGSGSGTEFTLTISSLQPEDFATYYCQQYSSYPYTFGQGTKLEIK
With B12, in assay [1], the koff worked out at 0.000304 s⁻¹. In assay [2], the “Off-Rate Ratio to that of EM0005-90c” value was determined as 120%.

B13: HuEM0005-90-1 (antibody, human IgG1, V domains shown)
VH: EVQLVQSGAEVKKPGASVKVSCKASGYTFTSHSINWVRQATGQGLEWMGYMYIGNGYTEYNEKFKGRVTLTSNTSISTAYMELSSLRSEDTAVYYCAKITPVVAPYVMDYWGQGTSVTVSS
VL: DIQLTQSPSFLSASVGDRVTITCKASQDVGTAVAWYQQKPGKAPKLLIYWASTRHTGVPSRFSGSGSGTEFTLTISSLQPEDFATYYCQQYSSYPYTFGQGTKLEIK
notes: measured without the G55A change
B13 displayed a dissociation rate constant (koff) in assay [1] of 0.000259 s⁻¹. Moreover, the “Off-Rate Ratio to that of EM0005-90c” value in assay [2] worked out at 102%.

B14: HuEM0005-90-6 (antibody, human IgG1, V domains shown)
VH: EVQLVQSGAEVKKPGASVKVSCKASGYTFTSHSINWVRQATGQGLEWIGYMYIGNGYTEYNEKFKGRATLTSNTSISTAYMELSSLRSEDTAVYYCAKITPVVAPYVMDYWGQGTSVTVSS
VL: DIQMTQSPSFLSASVGDRVTITCKASQDVGTAVAWYQQKPGKAPKLLIYWASTRHTGVPSRFSGSGSGTEFTLTISSLQPEDFATYYCQQYSSYPYTFGQGTKLEIK
With B14, the koff in assay [1] turned out to be 0.000254 s⁻¹. Moreover, the “Off-Rate Ratio to that of EM0005-90c” value in assay [2] is 100%.
